The text below walks through data of patent publication US20230167431.

The test system of the data set is CCR5-targeting megaTAL (CCR5MT) expressed as a CCR5MT-tEGFR fusion (Artificial sequence). As to the kind of experiment: cell_activity. As to conditions: tEGFR-sorted primary human CD4 T cells, donor 1; estimated InDels 58.76%; donor 2 73.54% cleaved; untreated 0%; SEQ:6 assigned to the megaTAL by inference from ….

Regarding CCR5 gene megaTAL target site, the activity (% cleaved DNA (T7E1)) is 83.
